In article PMC9460772 (2022):

Molecular target: PPIA (Homo sapiens, UniProt P62937)
Experiment: NMR

- Kd: 23 µM
B1: PR20 proline-arginine dipeptide repeat (peptide)
chain: PRPRPRPRPRPRPRPRPRPRPRPRPRPRPRPRPRPRPRPR
